Measured values: patent US20020137703, “Protection-of-telomere-1 (POT-1) protein and encoding polynucleotides” (published 2002)

T1: SpPot1p (Pot1, full length) (Schizosaccharomyces pombe, UniProt O13988 O13988:1-555)
T1 sequence: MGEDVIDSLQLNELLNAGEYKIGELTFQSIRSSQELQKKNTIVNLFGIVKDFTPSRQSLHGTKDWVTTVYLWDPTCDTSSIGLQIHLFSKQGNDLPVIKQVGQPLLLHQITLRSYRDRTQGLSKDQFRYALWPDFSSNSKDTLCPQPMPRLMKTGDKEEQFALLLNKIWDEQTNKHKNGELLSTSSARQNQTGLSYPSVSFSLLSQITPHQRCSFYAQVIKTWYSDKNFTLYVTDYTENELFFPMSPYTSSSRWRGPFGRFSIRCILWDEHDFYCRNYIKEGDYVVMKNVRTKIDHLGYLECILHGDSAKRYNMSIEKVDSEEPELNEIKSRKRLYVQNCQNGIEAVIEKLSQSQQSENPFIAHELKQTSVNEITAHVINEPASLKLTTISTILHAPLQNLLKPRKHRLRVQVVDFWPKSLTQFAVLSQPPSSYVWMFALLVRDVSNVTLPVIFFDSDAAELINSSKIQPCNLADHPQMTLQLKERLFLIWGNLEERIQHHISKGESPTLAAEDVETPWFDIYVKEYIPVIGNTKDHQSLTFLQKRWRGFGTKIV

T2: SpPot1p N-terminal 22 kDa fragment (Schizosaccharomyces pombe, UniProt O13988 O13988:1-185)
T2 sequence: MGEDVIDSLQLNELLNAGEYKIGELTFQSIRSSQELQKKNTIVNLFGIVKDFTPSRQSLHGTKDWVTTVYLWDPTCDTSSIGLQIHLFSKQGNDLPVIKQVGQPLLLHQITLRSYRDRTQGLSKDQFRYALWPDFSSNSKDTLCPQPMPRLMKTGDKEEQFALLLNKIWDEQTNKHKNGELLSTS

T3: hPot1p (Homo sapiens, UniProt Q9NUX5 Q9NUX5:1-634)
T3 sequence: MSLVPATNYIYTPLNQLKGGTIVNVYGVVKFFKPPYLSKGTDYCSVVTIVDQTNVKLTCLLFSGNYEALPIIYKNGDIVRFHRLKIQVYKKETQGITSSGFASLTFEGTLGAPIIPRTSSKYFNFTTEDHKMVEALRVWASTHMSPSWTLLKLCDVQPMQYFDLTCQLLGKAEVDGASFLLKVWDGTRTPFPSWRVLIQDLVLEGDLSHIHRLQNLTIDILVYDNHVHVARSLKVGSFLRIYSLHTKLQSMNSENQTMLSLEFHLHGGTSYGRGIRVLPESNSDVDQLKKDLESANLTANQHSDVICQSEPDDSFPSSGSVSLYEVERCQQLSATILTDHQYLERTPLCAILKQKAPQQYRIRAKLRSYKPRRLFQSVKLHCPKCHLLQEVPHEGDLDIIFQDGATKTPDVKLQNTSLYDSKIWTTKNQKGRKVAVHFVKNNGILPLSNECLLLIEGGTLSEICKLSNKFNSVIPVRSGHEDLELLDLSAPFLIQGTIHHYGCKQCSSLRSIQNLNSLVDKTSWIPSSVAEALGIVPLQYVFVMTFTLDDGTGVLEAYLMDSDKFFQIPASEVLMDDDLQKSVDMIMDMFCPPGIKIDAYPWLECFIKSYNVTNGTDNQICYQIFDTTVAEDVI


target: T1, SpPot1p (Pot1, full length); experiment: listed as SpPot1p-binding oligonucleotide; details: tags: N-terminal V5 and His6 tags plus pQE30 N-terminal His6; E. coli M15

Question: Does CTGTAAGCATATCATCGGTTACGGTTAC (ssDNA) [PBoli185] bind?
Answer: binds

Question: Does GGTTACGCATATCATCATTCGAATCTCG (ssDNA) [PBoli184] bind?
Answer: binds

Question: Does CTGTAAGCATATGGTTACTCGAATCTCG (ssDNA) [PBoli187] bind?
Answer: binds

Question: Does GGTTACAGGTTACAGGTTAC (ssDNA) [PT1] bind?
Answer: binds

Question: Does CTGTAAGCGGTTACGGTTACGAATCTCG (ssDNA) [PBoli188] bind?
Answer: binds

Question: Does GGTTACGGTTACCATCATTCGAATCTCG (ssDNA) [PBoli186] bind?
Answer: binds

Question: Does GGTTACACGGTTACAGGTTACAGGTTACAG (ssDNA) [PBoli110] bind?
Answer: binds

Question: Does GGTTACGGTTACAGGTTACA (ssDNA) [PBoli52] bind?
Answer: binds

Question: Does CGGTTACACGGTTACAGGT (ssDNA) [PBoli53] bind?
Answer: binds

Question: Does GTTACAGGTTACGGTTACGG (ssDNA) [PBoli54] bind?
Answer: binds

Question: Does TGTGGTGTGTGGGTGTGCGGTT (ssDNA) [PBoli86] bind?
Answer: binds

Question: Does CTGTAAGCATATCATCATTCGAGGTTAC (ssDNA) [PBoli183] bind?
Answer: binds

target: T2, SpPot1p N-terminal 22 kDa fragment; experiment: EMSA; truncated Pot1p-DNA complex seen in mixture with full-length protein; details: tags: N-terminal V5 and His6 tags; present in mixture with full-length protein; label: 5' 32P
Protocol: FIG. 3B: Same as FIG. 3A except that the added protein contained truncated Pot1p as well as full length protein. Truncated Pot1p-DNA complex is indicated by a closed arrow.
(§1) C-strand ([…]) and G-strand ([…]) were 5′ ³²P-labeled using T4 polynucleotide kinase and γ-³²P-ATP. Duplex DNA was generated by annealing equimolar amounts of radiolabeled C-strand and unlabelled G-strand. Binding reactions (10 μl) were carried out in 25 mM HEPES (pH 7.5), 1 mM EDTA, 50 mM NaCl, 5% glycerol, and 2.5 μM PBoli109 ([…]) as non-specific competitor. Pot1p (50 ng) was incubated with the indicated DNA substrates (1 ng) for 15 min at 20° C. Complexes were analyzed by electrophoresis at 4° C. through a 4-20% TBE gel (Invitrogen) run at 150 V for 80 min. The Pot1p-DNA complex is indicated by an open arrow in FIG. 3A. […] Truncated Pot1p-DNA complex is indicated by a closed arrow.

Question: Does GGTTACACGGTTACAGGTTACAGGTTACAGGGTTACGGTTACG (ssDNA) [S. pombe G-strand (PBoli112)] bind?
Answer: binds

target: T1, SpPot1p (Pot1, full length); experiment: EMSA; 25 mM HEPES pH 7.5, 1 mM EDTA, 50 mM NaCl, 5% glycerol, 20 C, PBoli109 competitor; details: tags: N-terminal V5 and His6 tags plus pQE30 N-terminal His6; E. coli M15; label: 5' 32P
Protocol: as §1

Question: Does GGTTACACGGTTACAGGTTACAGGTTACAGGGTTACGGTTACG (ssDNA) [S. pombe G-strand (PBoli112)] bind?
Answer: binds

target: T3, hPot1p; experiment: EMSA; same conditions as SpPot1p; details: tags: N-terminal His6 (pQE30); E. coli; label: 32P

Question: Does TTAGGGTTAGGGTTAGGGTTAGGGTTAGGG (ssDNA) [human G-strand (TTAGGG)5 (PBoli179)] bind?
Answer: binds

target: T3, hPot1p; experiment: listed as hPot1p-binding oligonucleotide; details: tags: N-terminal His6 (pQE30); E. coli

Question: Does TTAGGGTTAGGGTTAGGGTT (ssDNA) [PBoli177] bind?
Answer: binds

Question: Does GGTTAGGGTTAGGGTTAGGG (ssDNA) [PBoli178] bind?
Answer: binds
